The source of these data is doi:10.1101/2024.07.05.601840v1.

What all share (experiment): purified protein
Substrate in data set [1]: CC(=O)CC(=O)SCCNC(=O)CCNC(=O)[C@H](O)C(C)(C)COP(=O)(O)OP(=O)(O)OC[C@H]1O[C@@H](n2cnc3c(N)ncnc32)[C@H](O)[C@@H]1OP(=O)(O)O
The following applies: 0.2 mM NADPH, pH 7 TRIS-HCl, 35°C.

Substrate in data set [2]: NC(=O)C1=CN([C@@H]2O[C@H](COP(=O)(O)OP(=O)(O)OC[C@H]3O[C@@H](n4cnc5c(N)ncnc54)[C@H](OP(=O)(O)O)[C@@H]3O)[C@@H](O)[C@H]2O)C=CC1
The following applies: 0.3 mM AcAcCoA, pH 7 TRIS-HCl, 35°C, varied: cofactor.

Substrate in data set [3]: C[C@@H](O)CC(=O)SCCNC(=O)CCNC(=O)[C@H](O)C(C)(C)COP(=O)(O)OP(=O)(O)OC[C@H]1O[C@@H](n2cnc3c(N)ncnc32)[C@H](O)[C@@H]1OP(=O)(O)O
The following applies: oxidative direction, 2 mM NADP+, pH 7 TRIS-HCl, 70°C.

B1: ACR (Saci_1104) (Sulfolobus acidocaldarius DSM 639) (protein)
chain: MYSLKDKVVVVTGSGRGIGRAIALRLAQEGSKIVVNAKKRAEEVNETVEMVKKIGGDAVGVLADVGTKEGCETLLKSTLDKFGVVDILVNNAGLGLFSLFMNADDKLIEKHISVDFKSVVYCSQAFAREMREGGEIVNIASIAGVLPAYGLSMYGAMKGAVISLTKYMALELAPKIRVNAIAPGWVKTKLGESMYKLLNMSEKEFVEKTTLMGKMLEPEDIAEFVTAILKIEGLTGQVFVVDAGESIKRGIA
Take B1: the Km in the data set “purified protein [1]” was 77 ± 9 µM; in “purified protein [2]”, 24 ± 3 µM; in “purified protein [3]”, 160 ± 12 µM. Moreover, the kcat is 0.586 s⁻¹ in the data set “purified protein [1]” and 0.435 s⁻¹ in the data set “purified protein [3]”.
